Reference: the DeepSol protein solubility set

Assay: soluble on expression in E. coli; label from the status in PepcDB or PDB records

Sequence | soluble on expression in E. coli
MGSDKIHHHHHHMIKLAQPQAQRLVLLLAGAVRSVLLYPGSHPAVVQQFAHLGSHVTELLRAYPEVRIGIIDGVLFCENHLFFTPTAAEEELAALLTNRHVEAVAFRAGLTPLELERFVELLTRRELLGEQLVAEVKRAGIAAISVELCGSGATEDHSQGDDEYDPGTTYREALDVVTGLFSEVEKGRIPSSDKLRGVVDRMATMIMQDRATLLGLAMIKDYDNYTFCHSVNVGILSMSLGAAAGLQRDELGELGMAGFLHDVGKTRVEITILNKPGRLSSDEYERMKMHSEEGARIVGEMPGVGERIARAVLGHHIRFDRAGYPESARALAFDRFCDIIAVADCYDAITTLRVYKSPLNPKDALLKLRSLAGSHLDSGLVQAFTEMMGRYPVGTLVRLDTNEVAVVFRPDPNGGERPVVKVVADPAGRLLDPAHMKNLARETGTRIVSVVDPLMTAIDVNRYLG | not soluble
MTKSLPGVADLRLGANHPRMWTRRVQGTVVNVGVKVLPWIPTPAKRILSAGRSVIIDGNTLDPTLQLMLSTSRIFGVDGLAVDDDIVASRAHMRAICEAMPGPQIHVDVTDLSIPGPAGEIPARHYRPSGGGATPLLVFYHGGGWTLGDLDTHDALCRLTCRDADIQVLSIDYRLAPEHPAPAAVEDAYAAFVWAHEHASDEFGALPGRVAVGGDSAGGNLSAVVCQLARDKARYEGGPTPVLQWLLYPRTDFTAQTRSMGLFGNGFLLTKRDIDWFHTQYLRDSDVDPADPRLSPLLAESLSGLAPALIAVAGFDPLRDEGESYAKALRAAGTAVDLRYLGSLTHGFLNLFQLGGGSAAGTNELISALRAHLSRV | soluble
MVKLMEVYEGKAKKMIPIDDDKLIMEFKDDATAFDGTKKARFKGKGWLNAQLSVIFFKLLEEHGIKTHFIGVAGGNRLIVEKLDMYPLEVVVRNVVAGSLKKRLPLPEGYELPEPIVELYYKNDELHDPMINYYHAKVLGISLDEIKKIEEIALKVNEILKDYLAKKGIILVDFKLEFGKDKNGDIVLADEISPDTCRFWDAKTKRSLDKDVFRFDKGDLIEAYKEIYERITGEKPEF | soluble
GPLGSHENCQSPSMKRSRCTNYSFRTLTLSTAEYTKVVEFLAREAKVPRYTWVPTQVVSHILPTEGLERFLTAIKAGHDSVLFNANGIYTMGDMIREFEKHNDIFERIGIDSSKLSKYYEAFLSFYRIQEAMKLPK | soluble
MSLTTRVIALDLDGTLLTPKKTLLPSSIEALARAREAGYQLIIVTGRHHVAIHPFYQALALDTPAICCNGTYLYDYHAKTVLEADPMPVIKALQLIEMLNEHHIHGLMYVDDAMVYEHPTGHVIRTSNWAQTLPPEQRPTFTQVASLAETAQQVNAVWKFALTHDDLPQLQHFGKHVEHELGLECEWSWHDQVDIARGGNSKGKRLTKWVEAQGWSMENVVAFGDNFNDISMLEAAGTGVAMGNADDAVKARANIVIGDNTTDSIAQFIYSHLIEGHHHHHH | soluble
MSLAKNIVFIGFMGSGKSTLARALAKDLDLVFLDSDFLIEQKFNQKVSEIFEQKRENFFREQEQKMADFFSSCEKACIATGGGFVNVSNLEKAGFCIYLKADFEYLKKRLDKDEISKRPLFYDEIKAKKLYNERLSKYEQKANFILNIENKNIDELLSEIKKVIKEGGSHHHHHH | soluble
MSLLRIRQPKSETVRQFLQTQASRDFSYPMVGATLATPPSEYQVDHTRVRLGHGEESLAQGRIALQKWTQFQLGWVTTFPPALPIQAGEMVAIVARAGGFWWLNACRIVCTIEEPKQFGFAYGTLPAHAESGEERFLIEMDDAGDVWYDILAFSRPNRVSAKLAYPYMRHLQKRFARESAAAMRQAIRPEGHHHHHH | soluble
MKAMRYEQISENAFKGKIQVYLEQILGDASLILKTLHEKDQCLLCELDDLGHVFQDMQGIASSFYLQSYIEEFTPAFIELAKAIKALSEHKHGALIVIERADPVERFIQKGTSLHAEISSSLIESIFFPGNPLHDGALLVRENKLVSASNVLPLTTKEVDIHLGTRHLAALGMSGYTDALVLVVSEETGKMSFAKDGVLYPLISPRT | not soluble
MAHHHHHHMPSDGEGKVQQVNIDEIDAVTGFKKAELYVWNAYAAAFLAEGGEPETDVEAWIDDFCQRSEESGAVFDRNFVKSVCTLGIYAGPRDEFQQRSGCGKATYASGDTYEGEFFEGKKHGRGQYIFVSKGRSEADRVVSKEVELLTSAGKDAKAMVTEIATKLQLGRHVVEGIMQYGQRPCYHGDYVRGKRTGRGVMKNKDGTLYQGEFLENKRHGQGVYYYLNGDVYSGNWKAGAKDGYGTYHFAEGSEYRGEWVRGNFVQGQWILQGGSYYEGKFDKKNRPLDDAASLHYPSIQMAQTGAFRRGIWAPTSALQVCSEVPVDGMAWAD | soluble
